# Experimental data taken from patent publication US20260125649A1, “MEDIUM COMPOSITION AND METHOD FOR CULTURING MESENCHYMAL STEM CELLS” (ACADEMIA SINICA, priority 2018, published 2026).
# B1: EpEX: extracellular domain of human EpCAM, 265 amino acids in length (SEQ ID NO: 2) (protein, listed as Homo sapiens)
# chain: MAPPQVLAFGLLLAAATATFAAAQEECVCENYKLAVNCFVNNNRQCQCTSVGAQNTVICSKLAAKCLVMKAEMNGSKLGRRAKPEGALQNNDGLYDPDCDESGLFKAKQCNGTSMCWCVNTAGVRRTDKDTEITCSERVRTYWIIIELKHKAREKPYDSKSLRTALQKEITTRYQLDPKFITSILYENNVITIDLVQNSSQKTQNDVDIADVAYYFEKDVKGESLFHSKKMDLTVNGEQLDLDPGQTLIYYVDEKAPEFSMQGLK
# Experiments:
# Assay type in all cases: cell-based, human
# HMGA2 = HMGA2 expression and nuclear translocation (Western blotting, immunofluorescence, qPCR); settings: EpEX 3 μg/mL
# Description: MSCs were treated with EpEX (3 μg/mL), and the expression of HMGA2 was detected by immunofluorescence staining. […] To detect the binding of HMGA2 to Oct4 promoters, cross-linked DNA was isolated and then amplified with specific primers by qPCR. […] The gene expression of HMGA2 is detected by qPCR. MSCs were treated with let-7 mimetic and then treated with EpEX (3 μg/mL) for 12 h. The protein abundance of HMGA2 was examined by Western blotting.
# (§1) Total RNA was extracted using TRI reagent (Invitrogen, CA, USA), and 5 μg of total RNA was reverse transcribed using oligo (dT) primer (Fermentas, Glen Burnie, MD, USA) with SuperScript III reverse transcriptase (Invitrogen). Quantitative real time RT-PCR (qPCR) was performed on cDNA using the Light Cycler 480 SYBR Green I Master kit (Roche Applied Science, Indianapolis, IN) and the LightCycler480 System (Roche Applied Science). The gene expression levels of each sample were normalized to the expression levels of glyceraldehyde 3-phosphate dehydrogenase (GAPDH).
# Western blotting was performed as previously described (Takahashi et al., 2003). Cells were lysed in lysis buffer (150 mM NaCl, 50 mM Tris-HCl (pH 7.4), 1% Nonidet P-40), containing a protease inhibitor mix (Roche Applied Science). […]
# let-7 = let-7 expression by qPCR; settings: EpEX 3 μg/mL
# Text: The expression of let-7 was detected by qPCR. MSCs expressing EGFR shRNA, STAT3 shRNA or Lin28b shRNA were stimulated with EpEX. The expression of let-7 was detected by qPCR. […] Expression of pluripotency factors (Oct4, Sox2, c-Myc and Lin28) was examined by qPCR. MSCs were transfected with a let-7 mimetic, and then stimulated with EpEX. Protein levels of pluripotency factors (Oct4, Sox2, c-Myc, and Lin28) were examined by Western blotting.
# as §1
# [1] = system: Oct4, Sox2, c-Myc and EpCAM; test: Flow cytometry of stemness markers in MSCs; settings: data not shown
# Description: Cells were dissociated with 0.25% trypsin-EDTA (1 mM) (Invitrogen) for 3 min, washed with fluorescence-activated cell sorting buffer (FACS buffer, PBS containing 1% fetal bovine serum), fixed in 4% PFA, and then permeabilized with 0.1% Triton X-100 in PBS. Subsequently, cells were stained with Oct4, Sox2 or Nanog antibodies (1:100, ab 107156, Abcam, UK), washed and suspended in FACS buffer, and incubated with secondary antibody (1:200, Jackson ImmunoResearch) for 60 min at room temperature. Flow cytometry analysis was performed with a BD FACSCanto II flow cytometer (BD Biosciences, CA, USA).
# We used human bone marrow-derived MSCs to study the effects of EpEX and first investigated whether EpEX promotes cell proliferation of MSCs. […] Next, we examined the effect of EpEX on cell cycle progression by flow cytometry with propidium iodide (PI) staining. […] EpCAM has been reported to enhance cell cycle progression through upregulation of the proto-oncogene c-Myc and cyclin A/E (Munz et al., 2004). Additionally, EpCAM is known to upregulate cyclin D1 via its direct interaction partner, FHL2, and downstream events such as phosphorylation of the retinoblastoma protein, Rb (Chaves-Perez et al., 2013). Therefore, we further asked whether EpEX can function to upregulate the expression of cell cycle regulators and pluripotency markers. […]
molecule,measurement,setting,value
B1,level of HMGA2,HMGA2,induced
same,HMGA2 nuclear translocation,HMGA2; Western blotting and immunofluorescent staining,induced
same,level of let-7,let-7,decreased
same,"protein levels of the stemness markers Oct4, Sox2, c-Myc and EpCAM",[1],increased
